Measurements: patent publication US20220387578A1

Assays:
[1] = molecular target: H12 HA A/duck/Alberta/60/1976, recombinant (influenza A virus)
[2] = molecular target: H14 HA A/mallard duck/Astrakhan/263/1982, recombinant (influenza A virus)
[3] = molecular target: H15 HA A/shearwater/Western Australia/2576/1979, recombinant (influenza A virus)
[4] = molecular target: H9 HA A/Hong Kong/1073/99, recombinant (influenza A virus)
[5] = molecular target: H7 HA A/Shanghai/2/2013 (H7N9), recombinant uncleaved trimer (influenza A virus)
[6] = molecular target: H5 HA A/Indonesia/05/2005 (H5N1), recombinant (influenza A virus)
[7] = molecular target: H2 HA A/Singapore/1/1957, recombinant soluble trimer (influenza A virus)
[8] = molecular target: H3 HA A/Hong Kong/1/1968 (H3N2), recombinant soluble trimer (influenza A virus), Q91MA7; settings: remark: other sources report otherwise

Binder | EC50 [1] [µg/mL] | EC50 [2] [µg/mL] | EC50 [3] [µg/mL] | EC50 [4] [µg/mL] | EC50 [5] [µg/mL] | EC50 relative to wild type rFluA-20 [6] [fold] | EC50 [7] [µg/mL] | EC50 [6] [µg/mL] | EC50 relative to wild type rFluA-20 [1] [fold] | EC50 relative to wild type rFluA-20 [2] [fold] | EC50 relative to wild type rFluA-20 [3] [fold] | EC50 relative to wild type rFluA-20 [4] [fold] | EC50 relative to wild type rFluA-20 [5] [fold] | EC50 relative to wild type rFluA-20 [7] [fold] | EC50 [8] [µg/mL]
rFluA-20 heavy chain mutant Y34A (antibody, V domains shown) VH: QVQLQESGPGLVKPSETLSLTCSVSGVSVTSDIAYWTWIRQPPGKGLEWIGYIFYNGDTNYNPSLKSRVTMSIDTSKNEFSLRLTSVTAADTAVYFCARGTEDLGYCSSGSCPNHWGQGTLVTVSS VL: DIQMTQSPSSLSASIGDRVTITCRPSQNIRSFLNWFQHKPGKAPKLLIYAASNLQSGVPSRFSGSGSGTEFTLTIRSLQPEDFATYYCQQSYNTPPTFGQGTKVEIK | 0.05 | 0.54 | 0.1 | 0.21 | 0.44 | > 100 | 0.11 | – | – | – | – | – | – | – | –
rFluA-20 heavy chain mutant T96A (antibody, V domains shown) VH: QVQLQESGPGLVKPSETLSLTCSVSGVSVTSDIYYWTWIRQPPGKGLEWIGYIFYNGDTNYNPSLKSRVTMSIDTSKNEFSLRLTSVTAADTAVYFCARGAEDLGYCSSGSCPNHWGQGTLVTVSS VL: DIQMTQSPSSLSASIGDRVTITCRPSQNIRSFLNWFQHKPGKAPKLLIYAASNLQSGVPSRFSGSGSGTEFTLTIRSLQPEDFATYYCQQSYNTPPTFGQGTKVEIK | 0.04 | 0.23 | 0.07 | 0.1 | 0.37 | – | 0.07 | 0.11 | – | – | – | – | – | – | –
rFluA-20 heavy chain mutant E97A (antibody, V domains shown) VH: QVQLQESGPGLVKPSETLSLTCSVSGVSVTSDIYYWTWIRQPPGKGLEWIGYIFYNGDTNYNPSLKSRVTMSIDTSKNEFSLRLTSVTAADTAVYFCARGTADLGYCSSGSCPNHWGQGTLVTVSS VL: DIQMTQSPSSLSASIGDRVTITCRPSQNIRSFLNWFQHKPGKAPKLLIYAASNLQSGVPSRFSGSGSGTEFTLTIRSLQPEDFATYYCQQSYNTPPTFGQGTKVEIK | 0.06 | 0.64 | 0.12 | 0.36 | 1 | > 100 | 0.13 | – | – | – | – | – | – | – | –
rFluA-20 heavy chain mutant Y100aA (antibody, V domains shown) VH: QVQLQESGPGLVKPSETLSLTCSVSGVSVTSDIYYWTWIRQPPGKGLEWIGYIFYNGDTNYNPSLKSRVTMSIDTSKNEFSLRLTSVTAADTAVYFCARGTEDLGACSSGSCPNHWGQGTLVTVSS VL: DIQMTQSPSSLSASIGDRVTITCRPSQNIRSFLNWFQHKPGKAPKLLIYAASNLQSGVPSRFSGSGSGTEFTLTIRSLQPEDFATYYCQQSYNTPPTFGQGTKVEIK | – | – | – | – | – | > 100 | – | – | > 100 | > 100 | > 100 | > 100 | > 100 | > 100 | –
rFluA-20 light chain mutant Q55A (antibody, V domains shown) VH: QVQLQESGPGLVKPSETLSLTCSVSGVSVTSDIYYWTWIRQPPGKGLEWIGYIFYNGDTNYNPSLKSRVTMSIDTSKNEFSLRLTSVTAADTAVYFCARGTEDLGYCSSGSCPNHWGQGTLVTVSS VL: DIQMTQSPSSLSASIGDRVTITCRPSQNIRSFLNWFQHKPGKAPKLLIYAASNLASGVPSRFSGSGSGTEFTLTIRSLQPEDFATYYCQQSYNTPPTFGQGTKVEIK | – | – | – | – | – | – | – | – | – | – | – | – | – | – | 0.08
